T1: C-reactive protein (CRP) (human, UniProt P02741 19-224)
T1 sequence: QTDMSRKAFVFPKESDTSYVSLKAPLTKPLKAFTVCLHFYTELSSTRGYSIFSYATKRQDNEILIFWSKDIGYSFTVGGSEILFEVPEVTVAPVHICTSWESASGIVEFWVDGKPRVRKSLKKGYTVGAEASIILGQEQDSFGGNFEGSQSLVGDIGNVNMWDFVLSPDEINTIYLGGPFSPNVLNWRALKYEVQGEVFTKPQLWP

T2: alpha-fetoprotein (AFP) (UniProt P02771 19-609)
T2 sequence: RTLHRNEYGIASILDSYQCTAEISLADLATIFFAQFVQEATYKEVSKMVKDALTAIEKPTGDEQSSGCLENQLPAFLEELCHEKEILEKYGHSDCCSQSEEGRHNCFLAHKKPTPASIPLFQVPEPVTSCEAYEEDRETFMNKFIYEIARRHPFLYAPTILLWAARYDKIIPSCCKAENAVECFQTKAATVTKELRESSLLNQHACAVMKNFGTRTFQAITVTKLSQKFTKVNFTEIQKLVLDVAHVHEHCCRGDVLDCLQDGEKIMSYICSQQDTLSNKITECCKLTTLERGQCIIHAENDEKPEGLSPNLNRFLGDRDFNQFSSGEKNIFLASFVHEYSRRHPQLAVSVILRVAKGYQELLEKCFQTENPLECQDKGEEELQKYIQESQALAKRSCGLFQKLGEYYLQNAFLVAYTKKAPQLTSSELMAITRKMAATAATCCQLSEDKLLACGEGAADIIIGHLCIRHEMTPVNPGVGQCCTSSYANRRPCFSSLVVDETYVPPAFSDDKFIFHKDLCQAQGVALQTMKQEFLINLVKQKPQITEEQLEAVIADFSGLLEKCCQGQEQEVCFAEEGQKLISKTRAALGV

B1: CEA aptamer (ssDNA)
DNA: ATACCAGCTTATTCAATT
modifications: 3'-NH2 (sequence line; text also says 5' amino)
B2: AFB1 aptamer (ssDNA)
DNA: GTTGGGCACGTGTTGTCTCTCTGTGTCTCGTGCCCTTCGCTAGGCCCACA
modifications: 3'-NH2 (sequence line; text also says 5' amino)
B3: PSA aptamer (ssDNA)
DNA: ATTAAAGCTCGCCATCAAATAGCTGC
modifications: 5'-NH2
B4: CRP aptamer (ssDNA)
DNA: CGAAGGGGATTCGAGGGGTGATTGCGTGCTCCATTTGGTG
modifications: 5'-NH2

What was measured:
C-reactive protein (CRP) [1] = target: T1, C-reactive protein (CRP); assay: electrochemiluminescence aptasensor; no significant signal change; 0.01 M phosphate buffer (KH2PO4/Na2HPO4) pH 7.4; CRP incubation 80 min; binding temperature not stated; conditions: protein: recombinant; chain copies: 5
alpha-fetoprotein (AFP) = target: T2, alpha-fetoprotein (AFP); assay: electrochemiluminescence aptasensor; 100 ng/mL AFP; change very minimal vs 10 ng/mL CRP; 0.01 M phosphate buffer (KH2PO4/Na2HPO4) pH 7.4; CRP incubation 80 min; binding temperature not stated; conditions: protein: commercial
[2] = target: cancer antigen 15-3 (CA15-3) (UniProt P15941 24-1097); assay: electrochemiluminescence aptasensor; 100 ng/mL CA15-3; change very minimal vs 10 ng/mL CRP; 0.01 M phosphate buffer (KH2PO4/Na2HPO4) pH 7.4; CRP incubation 80 min; binding temperature not stated; conditions: protein: commercial
C-reactive protein (CRP) [3] = target: T1, C-reactive protein (CRP); assay: electrochemiluminescence aptasensor; Ru(bpy)3 2+/TPrA; BSA-blocked; linear 10 pg/mL-1 ug/mL, LOD 7.4 pg/mL; 0.01 M phosphate buffer (KH2PO4/Na2HPO4) pH 7.4; CRP incubation 80 min; binding temperature not stated; conditions: protein: recombinant; chain copies: 5

Sequence of cancer antigen 15-3 (CA15-3) (P15941 24-1097): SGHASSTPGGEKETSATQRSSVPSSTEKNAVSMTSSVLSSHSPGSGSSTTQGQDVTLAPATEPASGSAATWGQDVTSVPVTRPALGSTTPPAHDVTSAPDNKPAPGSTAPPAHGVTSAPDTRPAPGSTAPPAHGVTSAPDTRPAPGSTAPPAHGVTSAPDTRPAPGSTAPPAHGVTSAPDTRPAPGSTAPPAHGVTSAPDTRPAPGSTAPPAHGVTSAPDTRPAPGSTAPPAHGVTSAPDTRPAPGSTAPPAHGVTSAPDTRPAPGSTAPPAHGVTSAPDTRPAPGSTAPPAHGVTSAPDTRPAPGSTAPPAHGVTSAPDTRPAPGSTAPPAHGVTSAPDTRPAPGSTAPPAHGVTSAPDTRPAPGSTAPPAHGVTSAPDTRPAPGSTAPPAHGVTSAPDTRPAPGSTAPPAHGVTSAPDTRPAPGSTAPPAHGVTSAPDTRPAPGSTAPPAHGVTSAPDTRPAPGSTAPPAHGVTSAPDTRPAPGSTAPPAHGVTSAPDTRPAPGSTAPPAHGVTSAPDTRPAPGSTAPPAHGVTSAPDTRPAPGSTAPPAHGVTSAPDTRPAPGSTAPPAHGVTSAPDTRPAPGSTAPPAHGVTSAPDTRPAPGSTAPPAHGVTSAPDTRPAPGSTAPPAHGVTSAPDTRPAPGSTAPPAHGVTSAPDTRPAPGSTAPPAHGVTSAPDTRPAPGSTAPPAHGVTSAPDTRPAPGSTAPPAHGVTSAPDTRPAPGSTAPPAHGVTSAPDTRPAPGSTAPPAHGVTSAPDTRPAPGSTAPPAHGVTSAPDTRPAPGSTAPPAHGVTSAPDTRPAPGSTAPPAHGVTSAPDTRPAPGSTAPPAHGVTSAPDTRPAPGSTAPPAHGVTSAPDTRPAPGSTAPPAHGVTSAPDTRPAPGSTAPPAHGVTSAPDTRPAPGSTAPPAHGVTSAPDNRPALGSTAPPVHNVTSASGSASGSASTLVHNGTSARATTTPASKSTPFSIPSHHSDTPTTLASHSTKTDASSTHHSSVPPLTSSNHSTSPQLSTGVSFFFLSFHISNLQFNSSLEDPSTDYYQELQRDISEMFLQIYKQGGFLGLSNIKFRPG

| Binder | binding result (C-reactive protein (CRP) [1]) | binding result (alpha-fetoprotein (AFP)) | binding result [2] | binding result (C-reactive protein (CRP) [3]) |
| --- | --- | --- | --- | --- |
| B1 | no binding | – | – | – |
| B2 | no binding | – | – | – |
| B3 | no binding | – | – | – |
| B4 | – | no binding | no binding | binds |

Source: publication PMC10675231, “Electrochemiluminescence Aptasensor with Dual Signal Amplification by Silica Nanochannel-Based Confinement Effect on Nanocatalyst and Efficient Emitter Enrichment for Highly Sensitive Detection of C-R”
